Laboratory results: patent publication US20080299140A1, “Immunogenic Composition and Peptide Sequences for Prevention and Treatment of an Hsv Condition” (priority 2002, published 2008)

Experiments:
[1] = target: HLA-DR(α1*0101,α1*1501) (human); experiment: competition assay on purified HLA; tracer A3 (152-166)
[2] = target: HLA-DR(α1*0101,α1*0301) (human); experiment: competition assay on purified HLA; tracer MT (2-16)
[3] = target: DP (α1*0101, α1*0402) (human); experiment: competition assay on purified HLA; tracer bOxy 271-287
[4] = target: HLA-DR(α1*0101,α3*0101) (human); experiment: competition assay on purified HLA; tracer LOL (191-210)
[5] = target: HLA-DR(α1*0101,α4*0101) (human); experiment: competition assay on purified HLA; tracer E2/E168
[6] = target: HLA-DR(α1*0101,α5*0101) (human); experiment: competition assay on purified HLA; tracer HA (307-319)
[7] = target: HLA-DR(α1*0101,α1*1101) (human); experiment: as above
[8] = target: HLA-DR(α1*0101,α1*0101) (human); experiment: as above
[9] = target: HLA-DR(α1*0101,α1*0401) (human); experiment: as above
[10] = target: DR1=HLA-DR(α1*0101,α1*0101) (human); experiment: HLA class II competition binding assay, biotinylated tracer peptide
[11] = target: DR13=HLA-DR(α1*0101,α1*1301) (human); experiment: as above
[12] = target: DR15=HLA-DR(α1*0101,α1*1501) (human); experiment: as above
[13] = target: DR4=HLA-DR(α1*0101,α1*0401) (human); experiment: as above
[14] = target: DRB5=HLA-DR(α1*0101,α5*0101) (human); experiment: as above
[15] = target: DR11=HLA-DR(α1*0101,α1*1101) (human); experiment: as above
[16] = target: DR3=HLA-DR(α1*0101,α1*0301) (human); experiment: as above
[17] = target: DRB3=HLA-DR(α1*0101,α3*0101) (human); experiment: as above
[18] = target: DR7=HLA-DR(α1*0101,α1*0701) (human); experiment: as above
[19] = target: DP402=HLA-DR(α1*0101,α1*0402) (human); experiment: as above
[20] = target: DRB4=HLA-DR(α1*0101,α4*0101) (human); experiment: as above
[21] = target: HLA-DR(α1*0101,α1*1301) (human); experiment: competition assay on purified HLA; tracer B1 (21-36)
[22] = target: HLA-DR(α1*0101,α1*0701) (human); experiment: competition assay on purified HLA; tracer YKL
[23] = target: HLA-DR(α1*0101,α1*1501) (human); experiment: reference IC50 of the tracer peptide in the HLA class II competition assay
[24] = target: HLA-DP(α1*0101,α1*0401) (human); experiment: competition assay on purified HLA; tracer bOxy 271-287
[25] = target: DP401=HLA-DP(α1*0101,α1*0401) (human); experiment: HLA class II competition binding assay, biotinylated tracer peptide
[26] = target: HLA-DR(α1*0101,α1*1101) (human); experiment: reference IC50 of the tracer peptide in the HLA class II competition assay

Substance: HSV1 37 (gD200-234) (peptide)
- IC50 [1]: 13 nM
- IC50 [2]: 307 nM
- IC50 [3]: 167 nM
- IC50 [4]: 41 nM
- IC50 [5]: 3740 nM
- IC50 [6]: 68 nM
- IC50 [7]: 44 nM
- IC50 [8]: 4 nM
- IC50 [9]: 40 nM
- IC50 [10]: 4 nM
- IC50 [11]: 2050 nM
- IC50 [12]: 13 nM
- IC50 [13]: 40 nM
- IC50 [14]: 68 nM
- IC50 [15]: 44 nM
- IC50 [16]: 307 nM
- IC50 [17]: 41 nM
- IC50 [18]: 200 nM
- IC50 [19]: 167 nM
- IC50 [20]: 3740 nM
- IC50 [21]: 2050 nM
- IC50 [22]: 200 nM

Substance: HSV1 39 (gD332-358) (peptide)
- IC50 [1]: 950 nM
- IC50 [3]: > 100000 nM
- IC50 [4]: 2310 nM
- IC50 [5]: 703 nM
- IC50 [6]: 31 nM
- IC50 [7]: 5 nM
- IC50 [9]: 5870 nM
- IC50 [12]: 950 nM
- IC50 [13]: 5870 nM
- IC50 [14]: 31 nM
- IC50 [15]: 5 nM
- IC50 [17]: 2310 nM
- IC50 [18]: 274 nM
- IC50 [19]: > 100000 nM
- IC50 [20]: 703 nM
- IC50 [22]: 274 nM

Substance: A3 (152-166) (peptide)
- IC50 [23]: 13 nM

Substance: HSV1 35 (gD287-317) (peptide)
- IC50 [1]: 6790 nM
- IC50 [2]: 19500 nM
- IC50 [24]: > 100000 nM
- IC50 [3]: > 100000 nM
- IC50 [4]: 5000 nM
- IC50 [5]: 3260 nM
- IC50 [6]: 4500 nM
- IC50 [7]: 25000 nM
- IC50 [8]: 3160 nM
- IC50 [9]: 600 nM
- IC50 [10]: 3160 nM
- IC50 [11]: > 100000 nM
- IC50 [12]: 6790 nM
- IC50 [13]: 600 nM
- IC50 [14]: 4500 nM
- IC50 [25]: > 100000 nM
- IC50 [15]: 25000 nM
- IC50 [16]: 19500 nM
- IC50 [17]: 5000 nM
- IC50 [19]: > 100000 nM
- IC50 [20]: 3260 nM
- IC50 [21]: > 100000 nM

Substance: HA (307-319) (peptide)
- IC50 [26]: 52 nM

Substance: HSV1 29 (gD1-23) (peptide)
- IC50 [1]: 24500 nM
- IC50 [2]: 120 nM
- IC50 [24]: 17600 nM
- IC50 [3]: 1630 nM
- IC50 [4]: 1400 nM
- IC50 [5]: 52500 nM
- IC50 [6]: 8 nM
- IC50 [7]: 5250 nM
- IC50 [9]: 82 nM
- IC50 [11]: > 100000 nM
- IC50 [12]: 24500 nM
- IC50 [13]: 82 nM
- IC50 [14]: 8 nM
- IC50 [25]: 17600 nM
- IC50 [15]: 5250 nM
- IC50 [16]: 120 nM
- IC50 [17]: 1400 nM
- IC50 [18]: 894 nM
- IC50 [19]: 1630 nM
- IC50 [20]: 52500 nM
- IC50 [21]: > 100000 nM
- IC50 [22]: 894 nM

Substance: HSV1 33 (gD121-152) (peptide)
- IC50 [1]: 2 nM
- IC50 [2]: 66 nM
- IC50 [24]: 83 nM
- IC50 [3]: 65 nM
- IC50 [4]: 226 nM
- IC50 [5]: 319 nM
- IC50 [6]: 134 nM
- IC50 [7]: 289 nM
- IC50 [8]: 53 nM
- IC50 [9]: 8 nM
- IC50 [10]: 53 nM
- IC50 [12]: 2 nM
- IC50 [13]: 6 nM
- IC50 [14]: 134 nM
- IC50 [25]: 83 nM
- IC50 [15]: 289 nM
- IC50 [16]: 66 nM
- IC50 [17]: 226 nM
- IC50 [18]: 19 nM
- IC50 [19]: 65 nM
- IC50 [20]: 319 nM
- IC50 [22]: 19 nM
